Target: Piromyces ScaA fragment (Piromyces)
Assay: SPR equilibrium analysis

Kd	Substance
2000 nM	W28F dockerin mutant
700 nM	P. finnis single dockerin domain

From patent US20210269492A1
